According to patent publication US20210260070A1, “LYSIN CF-301 RESENSITIZES METHICILLIN-RESISTANT STAPHYLOCOCCUS AUREUA (MRSA) TO PENICILLIN DERIVATIVES AND FIRST GENERATION CEPHALOSPORINS” (priority 2018, published 2021):
In brackets after ≈: the same amount, converted by molar mass.

How the values were obtained:
Type in all cases: cell-based, Staphylococcus aureus
[1] = tested on: MRSA isolates from valvular vegetations; experiment: MIC values of MRSA isolates recovered from valvular vegetations after PlySs2 treatment (ex vivo)
Method: An ex vivo analysis was performed on tissue samples recovered after PlySs2 treatment in a standard rabbit model of MRSA infective endocarditis (IE), as disclosed in Xiong et al., Comparative efficacy of telavancin and daptomycin in experimental endocarditis due to multi-clonotype MRSA strains, J. ANTIMIC. CHEMO. (2016); 71(1):2890-94. The standard rabbit IE model was used to confirm the impact of PlySs2 treatment on oxacillin MICs. Four days after treatment with a single-dose of PlySs2 (0.18 mg/kg to 1.4 mg/kg) in the IE model, isolates were recovered from valvular vegetations and plated on TSAB (non-selective condition, Tables 3 and 4) and TSAB supplemented with PlySs2 over a range of concentrations (selective conditions, Tables 5 and 6). MIC values of the MRSA isolates were determined for both PlySs2 and oxacillin. Tables 3 and 4 below show the MICs calculated for PlySs2 and oxacillin, respectively, for valvular vegetations subject to the non-selective conditions.

MRSA strain MW2 = experiment: 21-day in vitro serial passage resistance assay
Text: Serial passage resistance studies were undertaken to assess the ability of PlySs2 lysin to suppress the emergence of antibiotic resistance when used in combination with oxacillin used to treat S. aureus infections. Methods used to perform serial passage experiments are described in Palmer et al., Genetic basis for daptomycin resistance in enterococci, ANTIMICROBIAL AGENTS AND CHEMOTHERAPY (2011); 55:3345-56 and Berti et al., Altering the Proclivity towards Daptomycin Resistance in Methicillin-Resistant Staphylococcus aureus Using Combinations with Other Antibiotics, ANTIMICROBIAL AGENTS AND CHEMOTHERAPY (2012); 56:5046-53, respectively.
21-day in vitro serial passage resistance assays were performed to determine the impact of PlySs2 (alone) on oxacillin and PlySs2 MIC values and the potential for a “seesaw” effect similar to that previously shown, whereby exposures to daptomycin or vancomycin were accompanied by increased susceptibility (and the potential for resensitization) to β-lactam antibiotics [Renzoni et al., Molecular Bases Determining Daptomycin Resistance-Mediated Resensitizatoin to β-Lactams (Seesaw Effect) in Methicillin-Resistant Staphylococcus aureus, ANTIMICROBIAL AGENTS AND CHEMOTHERAPY (2017) 61(1):e01634-16 and Werth et al., Evaluation of Ceftaroline Activity against Heteroresistant Vancomycin-Intermediate Staphylococcus aureus and Vancomycin-Intermediate Methicillin-Resistant S. aureus Strains in an In Vitro Pharmacokinetic/Pharmacodynamic Model: Exploring the ‘Seesaw Effect’, ANTIMICROBIAL AGENTS AND CHEMOTHERAPY (2013); 57(6):2664-68].
MRSA strain MW2 was serially passaged in triplicate on a daily basis for 21 days using both a 1.1-fold and 2-fold PlySs2 dilution series. As shown in FIGS. 1-3, only modest 2-fold shifts in PlySs2 MIC values were observed. […] This seesaw effect, i.e., a decrease in MRSA's susceptibility to PlySs2 accompanied by a paradoxical increase in susceptibility to oxacillin, indicates PlySs2 lysin's ability to resensitize MRSA to oxacillin. Three MRSA MW2 strain isolates were taken just prior (days 16, 11, and 8 for FIGS. 1-3, respectively) and just after (days 17, 12, and 9 for FIGS. 1-3, respectively) the observed MIC shift for whole genome sequencing.

[2] = tested on: MRSA MW2 mutant and control isolates from valvular vegetations; experiment: MICs of mutant and control isolates from the rabbit IE study
Text: The PlySs2 and oxacillin MICs of each mutant and control strain are shown below in Tables 7 and 8, wherein + indicates the presence of the mutation and—indicates an absence of the mutation.

[3] = non-selective, PlySs2 0.18 mg/kg (n = 24)
[4] = non-selective, PlySs2 0.35 mg/kg (n = 24)
[5] = non-selective, PlySs2 0.7 mg/kg (n = 24)
[6] = non-selective, PlySs2 1.4 mg/kg (n = 24)
[7] = selective conditions, PlySs2 0.18 mg/kg (n = 24)
[8] = selective conditions, PlySs2 0.35 mg/kg (n = 24)
[9] = selective conditions, PlySs2 0.7 mg/kg (n = 24)
[10] = selective conditions, PlySs2 1.4 mg/kg (n = 24)

Cc1onc(-c2ccccc2)c1C(=O)N[C@@H]1C(=O)N2[C@@H]1SC(C)(C)[C@@H]2C(=O)O [OXA, oxacillin]
MIC ([1]; Staphylococcus aureus, MRSA, read-out: Oxacillin MIC after PlySs2 exposure): < 2 µg/mL
Reduction in oxacillin MIC values ([1]; isolates after PlySs2 exposure in rabbit IE, selective conditions): greater than 16 fold
OXA MIC after shift (MRSA strain MW2; MW2, serial passage in PlySs2, after the shift): 16 µg/mL
OXA MIC before shift (MRSA strain MW2; MW2, serial passage in PlySs2, before the shift): 64 µg/mL
OXA MIC fold change (MRSA strain MW2; MW2 after PlySs2 exposure in serial passage): 0.25 fold
MIC ([2]; Staphylococcus aureus, Control #1 isolate): 64 µg/mL (≈ 159 µM)
MIC ([2]; Staphylococcus aureus, Control #2 isolate): 32 µg/mL (≈ 79.7 µM)
MIC ([2]; Staphylococcus aureus, Control #3 isolate): 64 µg/mL (≈ 159 µM)
MIC ([2]; Staphylococcus aureus, Mutant #1 (hlgCB near, mprF L291I, rlmH K159R, ΔSCCmec)): 1 µg/mL (≈ 2.49 µM)
MIC ([2]; Staphylococcus aureus, Mutant #2 (hlgCB near, graR I158S, rlmH K159R, ΔSCCmec)): 1 µg/mL (≈ 2.49 µM)
Decrease in oxacillin MIC ([2]; two mutants from the valvular vegetations): 32 fold

B1: PlySs2: bacteriophage lysin derived from Streptococcus suis, amino acid sequence SEQ ID NO: 1 (245 residues) (protein, listed as Streptococcus suis)
chain: MTTVNEALNNVRAQVGSGVSVGNGECYALASWYERMISPDATVGLGAGVGWVSGAIGDTISAKNIGSSYNWQANGWTVSTSGPFKAGQIVTLGATPGNPYGHVVIVEAVDGDRLTILEQNYGGKRYPVRNYYSAASYRQQVVHYITPPGTVAQSAPNLAGSRSYRETGTMTVTVDALNVRRAPNTSGEIVAVYKRGESFDYDTVIIDVNGYVWVSYIGGSGKRNYVATGATKDGKRFGNAWGTFK
PlySs2 MIC of recovered isolates ([1]; non-selective conditions, remained stable): 1 µg/mL
Number of isolates with Oxacillin MIC 32 μg/mL [1, 3]: 16
Number of isolates with PlySs2 MIC 1 μg/mL [1, 3]: 16
Number of isolates with Oxacillin MIC 32 μg/mL [1, 4]: 18
Number of isolates with Oxacillin MIC ≤2 μg/mL [1, 4]: 6
Number of isolates with PlySs2 MIC 0.5 μg/mL [1, 4]: 3
Number of isolates with PlySs2 MIC 1 μg/mL [1, 4]: 21
Number of isolates with Oxacillin MIC 16 μg/mL [1, 5]: 1
Number of isolates with Oxacillin MIC 32 μg/mL [1, 5]: 23
Number of isolates with PlySs2 MIC 0.5 μg/mL [1, 5]: 1
Number of isolates with PlySs2 MIC 1 μg/mL [1, 5]: 23
Number of isolates with Oxacillin MIC 32 μg/mL [1, 6]: 17
Number of isolates with Oxacillin MIC ≤2 μg/mL [1, 6]: 7
Number of isolates with PlySs2 MIC 1 μg/mL ([1]; non-selective, rabbits given PlySs2 1.4 mg/kg (n = 24)): 24
PlySs2 MIC increase ([1]; selective conditions, isolates after PlySs2 treatment): ≤ 2 fold
Number of isolates with Oxacillin MIC 32 μg/mL [1, 7]: 16
Number of isolates with PlySs2 MIC 1 μg/mL [1, 7]: 14
Number of isolates with PlySs2 MIC 2 μg/mL [1, 7]: 2
Number of isolates with Oxacillin MIC 32 μg/mL [1, 8]: 17
Number of isolates with Oxacillin MIC <2 μg/mL [1, 8]: 7
Number of isolates with PlySs2 MIC 1 μg/mL [1, 8]: 22
Number of isolates with PlySs2 MIC 2 μg/mL [1, 8]: 2
Number of isolates with Oxacillin MIC 32 μg/mL [1, 9]: 21
Number of isolates with PlySs2 MIC 1 μg/mL [1, 9]: 19
Number of isolates with PlySs2 MIC 2 μg/mL [1, 9]: 3
Number of isolates with Oxacillin MIC between <2 and 32 μg/mL (4, 8 or 16) ([1]; selective conditions, PlySs2 0.7 mg/kg (n = 24), column not resolvable): 3
Number of isolates with Oxacillin MIC 32 μg/mL [1, 10]: 21
Number of isolates with Oxacillin MIC <2 μg/mL [1, 10]: 3
Number of isolates with PlySs2 MIC 1 μg/mL [1, 10]: 20
Number of isolates with PlySs2 MIC 2 μg/mL [1, 10]: 4
PlySs2 MIC of recovered isolates ([1]; selective conditions, remained largely stable): 1 µg/mL
Shift in PlySs2 MIC values (MRSA strain MW2; MW2 passaged daily for 21 days in 1.1-fold and 2-fold PlySs2 dilution series, triplicate): 2 fold
MIC ([2]; Control #1 isolate): (1 μg/mL)/
MIC ([2]; Control #2 isolate): (2 μg/mL)/
MIC ([2]; Control #3 isolate): (2 μg/mL)
MIC ([2]; Mutant #1 (hlgCB near, mprF L291I, rlmH K159R, ΔSCCmec)): (2 μg/mL)
MIC ([2]; Mutant #2 (hlgCB near, graR I158S, rlmH K159R, ΔSCCmec)): (1 μg/mL)
